Laboratory results reported in PMC6987093, “Polymerase independent repression of FoxO1 transcription by sequence-specific PARP1 binding to FoxO1 promoter”.

Columns and labels:
PARP1 [1] = molecular target: T1, PARP1 (UniProt P09874 1-1014); experiment: pull-down (FREP); EcoRI and BamHI release; EMSA: 0, 2, 5 or 10 ug PARP1 pre-incubated 30 min with 50 ng DNA probe (Thermo EMSA kit), nondenaturing PAGE; buffer, salt, pH and temperature not given in the; details: label: 5' biotin
PARP1 [2] = molecular target: T1, PARP1; experiment: competition; 40-fold excess over FoxO1-R-B-biotin in FREP; EMSA: 0, 2, 5 or 10 ug PARP1 pre-incubated 30 min with 50 ng DNA probe (Thermo EMSA kit), nondenaturing PAGE; buffer, salt, pH and temperature not given in the

T1 sequence (P09874 whole entry): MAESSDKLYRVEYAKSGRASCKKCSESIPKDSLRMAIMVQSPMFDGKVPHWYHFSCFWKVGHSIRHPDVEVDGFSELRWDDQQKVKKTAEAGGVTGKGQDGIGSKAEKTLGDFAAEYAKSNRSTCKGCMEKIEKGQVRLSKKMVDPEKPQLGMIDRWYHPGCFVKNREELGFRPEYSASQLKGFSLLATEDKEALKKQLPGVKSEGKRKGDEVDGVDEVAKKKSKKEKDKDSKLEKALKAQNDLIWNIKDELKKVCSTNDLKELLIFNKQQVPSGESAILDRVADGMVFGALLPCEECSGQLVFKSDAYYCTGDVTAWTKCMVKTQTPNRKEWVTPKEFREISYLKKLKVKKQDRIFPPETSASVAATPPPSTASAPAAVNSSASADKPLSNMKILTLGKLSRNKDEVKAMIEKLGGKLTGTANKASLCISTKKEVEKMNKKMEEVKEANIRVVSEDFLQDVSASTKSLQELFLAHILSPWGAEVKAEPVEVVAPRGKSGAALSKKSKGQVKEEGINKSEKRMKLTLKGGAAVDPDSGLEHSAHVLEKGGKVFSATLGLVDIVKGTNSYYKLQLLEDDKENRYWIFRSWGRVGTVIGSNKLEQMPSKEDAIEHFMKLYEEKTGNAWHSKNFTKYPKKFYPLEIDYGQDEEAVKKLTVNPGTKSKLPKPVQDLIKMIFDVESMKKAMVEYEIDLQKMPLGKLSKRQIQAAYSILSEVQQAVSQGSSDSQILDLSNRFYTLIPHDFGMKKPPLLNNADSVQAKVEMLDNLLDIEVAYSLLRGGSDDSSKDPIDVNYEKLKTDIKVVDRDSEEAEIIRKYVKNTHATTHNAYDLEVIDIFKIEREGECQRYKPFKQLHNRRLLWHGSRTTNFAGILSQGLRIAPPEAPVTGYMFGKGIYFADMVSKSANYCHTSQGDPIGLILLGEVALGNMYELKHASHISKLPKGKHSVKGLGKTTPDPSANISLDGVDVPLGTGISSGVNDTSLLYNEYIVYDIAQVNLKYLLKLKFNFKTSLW

B1: FoxO1-L-B-biotin (dsDNA)
DNA 1: AATGATACGGCGACCACCGAGGATCCTCACTGTATTCTTGAATTCTCGTATGCCGTCTTCGCTTG
DNA 2: CAAGCGAAGACGGCATACGAGAATTCAAGAATACAGTGAGGATCCTCGGTGGTCGCCGTATCATT
Question: Does B1 bind (PARP1 [1])?
Answer: Result: binds

B2: FoxO1-R-B-biotin (dsDNA)
DNA 1: AATGATACGGCGACCACCGAGGATCCTCTTGTGGTCTCTTCACGTTTACGAATTCTCGTATGCCGTCTTCTGCTTG
DNA 2: CAAGCAGAAGACGGCATACGAGAATTCGTAAACGTGAAGAGACCACAAGAGGATCCTCGGTGGTCGCCGTATCATT
Question: Does B2 bind (PARP1 [1])?
Answer: Result: binds

B3: FoxO1-R-B (free competitor) (dsDNA)
DNA 1: AATGATACGGCGACCACCGAGGATCCTCTTGTGGTCTCTTCACGTTTACGAATTCTCGTATGCCGTCTTCTGCTTG
DNA 2: CAAGCAGAAGACGGCATACGAGAATTCGTAAACGTGAAGAGACCACAAGAGGATCCTCGGTGGTCGCCGTATCATT
Question: Does B3 bind (PARP1 [2])?
Answer: Result: binds
